B1: ARC1465 (mixed)
RNA: ACAGGCAAGUAAUUGGGGAGUGCGGGCGGGGUGU
modifications: deoxy A,G; 2'-OMe C,U; PS 11-12,19-20,20-21,21-22,22-23,26-27; 3'-idT [2'-OMe C,U at 2,6,10,13,14,21,23,27,32,34; deoxy A,G elsewhere; PS 11-12,19-20,20-21,21-22,22-23,26-27 (N = PS linkage, left out); 3'-inverted dT at 35]
B2: ARC1539 (mixed)
RNA: B1 RNA
modifications: 2'-OMe C,U and A1,G33; other A,G deoxy; 3'-idT
B3: ARC1464 (mixed)
RNA: B1 RNA
modifications: deoxy A,G; 2'-OMe C,U; PS 31-32; 3'-idT [2'-OMe C,U at 2,6,10,13,14,21,23,27,32,34; deoxy A,G elsewhere; PS 31-32 (N = PS linkage, left out); 3'-inverted dT at 35]
B4: ARC1540 (mixed)
RNA: B1 RNA
modifications: 2'-OMe C,U and A8,G9,A11; other A,G deoxy; 3'-idT
B5: ARC1441 (mixed)
RNA: B1 RNA
modifications: 2'-OMe C,U and G20; other A,G deoxy; 3'-idT
B6: ARC1450 (mixed)
RNA: B1 RNA
modifications: 2'-OMe C,U and G33; other A,G deoxy; 3'-idT
B7: ARC1437 (mixed)
RNA: B1 RNA
modifications: 2'-OMe C,U and G16; other A,G deoxy; 3'-idT
B8: ARC1453 (mixed)
RNA: B1 RNA
modifications: deoxy A,G; 2'-OMe C,U; PS 3-4; 3'-idT [PS linkage 3-4; 2'-OMe C,U at 2,6,10,13,14,21,23,27,32,34; all A,G 2'-deoxy; 3'-inverted dT at 35]
B9: ARC1439 (mixed)
RNA: B1 RNA
modifications: 2'-OMe C,U and G18; other A,G deoxy; 3'-idT
B10: ARC1451 (mixed)
RNA: B1 RNA
modifications: 2'-OMe C,U and A1,A3,G33; other A,G deoxy; 3'-idT
B11: ARC1438 (mixed)
RNA: B1 RNA
modifications: 2'-OMe C,U and G17; other A,G deoxy; 3'-idT
B12: ARC1428 (mixed)
RNA: B1 RNA
modifications: 2'-OMe C,U and A3; other A,G deoxy; 3'-idT
B13: ARC1440 (mixed)
RNA: B1 RNA
modifications: 2'-OMe C,U and A19; other A,G deoxy; 3'-idT
B14: ARC1446 (mixed)
RNA: B1 RNA
modifications: 2'-OMe C,U and G28; other A,G deoxy; 3'-idT
B15: ARC1444 (mixed)
RNA: B1 RNA
modifications: 2'-OMe C,U and G25; other A,G deoxy; 3'-idT
B16: ARC1455 (mixed)
RNA: B1 RNA
modifications: deoxy A,G; 2'-OMe C,U; PS 5-6; 3'-idT [PS linkage 5-6; 2'-OMe C,U at 2,6,10,13,14,21,23,27,32,34; all A,G 2'-deoxy; 3'-inverted dT at 35]
B17: ARC1452 (mixed)
RNA: B1 RNA
modifications: 2'-OMe C,U and A7,A8,G15; other A,G deoxy; 3'-idT
B18: ARC1462 (mixed)
RNA: B1 RNA
modifications: deoxy A,G; 2'-OMe C,U; PS 29-30; 3'-idT [2'-OMe C,U at 2,6,10,13,14,21,23,27,32,34; deoxy A,G elsewhere; PS 29-30 (N = PS linkage, left out); 3'-inverted dT at 35]
B19: ARC1445 (mixed)
RNA: B1 RNA
modifications: 2'-OMe C,U and G26; other A,G deoxy; 3'-idT
B20: ARC1457 (mixed)
RNA: B1 RNA
modifications: deoxy A,G; 2'-OMe C,U; PS 16-17; 3'-idT [PS linkage 16-17; 2'-OMe C,U at 2,6,10,13,14,21,23,27,32,34; all A,G 2'-deoxy; 3'-inverted dT at 35]
B21: ARC1427 (mixed)
RNA: B1 RNA
modifications: 2'-OMe C,U and A1; other A,G deoxy; 3'-idT
B22: ARC1430 (mixed)
RNA: B1 RNA
modifications: 2'-OMe C,U and G5; other A,G deoxy; 3'-idT
B23: ARC1543 (mixed)
RNA: B1 RNA
modifications: 2'-OMe C,U and A1,A8,G9,A11,G18,A19,G20,G22,G26,G28,G29,G33; other A,G deoxy; 3'-idT

Target: IL-23 (human, p19/p40 heterodimer) (Homo sapiens, UniProt Q9NPF7;P29460 SEQ:20-189,SEQ:23-328)
Experiment: filter; DPBS Ca Mg
Details: tags: R&D Systems, carrier free
Method: The dot blot binding assay previously described was used to characterize the relative potency of the majority of the aptamers synthesized. For KD determination, chemically synthesized aptamers were purified using denaturing polyacrylamide gel electrophoresis, 5′end labeled with γ-³²P ATP and were tested for direct binding to full human IL-23. An 8 point protein titration was used in the dot blot binding assay (either {100 nM, 30 nM, 10 nM, 3 nM, 1 nM, 300 pM, 100 pM, 0 pM} or {10 nM, 3 nM, 1 nM, 300 pM, 100 pM, 30 pM, 10 pM, 0 pM}) in Dulbecco's PBS (with Mg⁺⁺ and Ca⁺⁺) with 0.1 mg/mL BSA. KD values were calculated by fitting the equation y=(max/(1+K/protein))+yint using KaleidaGraph (KaleidaGraph v. 3.51, Synergy Software). Sequences of the ARC979 derivatives synthesized, purified and assayed for binding to IL-23 as well as the results of the protein binding characterization are tabulated below in Tables 29 and 30.

IL-23 (human, p19/p40 heterodimer), sequence (Q9NPF7 20-189, chain 1 of 2): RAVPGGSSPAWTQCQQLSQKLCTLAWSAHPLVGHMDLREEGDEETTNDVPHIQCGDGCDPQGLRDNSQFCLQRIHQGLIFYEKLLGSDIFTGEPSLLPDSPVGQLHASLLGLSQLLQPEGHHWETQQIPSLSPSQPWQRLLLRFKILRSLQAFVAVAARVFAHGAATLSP
IL-23 (human, p19/p40 heterodimer), sequence (P29460 23-328, chain 2 of 2): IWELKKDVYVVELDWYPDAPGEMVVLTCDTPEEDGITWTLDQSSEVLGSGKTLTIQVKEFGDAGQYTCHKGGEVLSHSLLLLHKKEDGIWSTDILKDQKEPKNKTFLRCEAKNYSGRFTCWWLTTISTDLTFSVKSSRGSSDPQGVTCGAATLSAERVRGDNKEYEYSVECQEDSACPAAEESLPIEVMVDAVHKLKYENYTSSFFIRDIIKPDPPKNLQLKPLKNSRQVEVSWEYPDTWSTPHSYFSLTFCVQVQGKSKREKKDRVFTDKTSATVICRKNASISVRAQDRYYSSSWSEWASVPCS

| Binder | Kd [nM] |
| --- | --- |
| B1 | 1.3 |
| B2 | 6.6 |
| B3 | 2.4 |
| B4 | 7.5 |
| B5 | 2.7 |
| B6 | 2.6 |
| B7 | 3.9 |
| B8 | 4.4 |
| B9 | 4.8 |
| B10 | 10.2 |
| B11 | 6 |
| B12 | 1.8 |
| B13 | 6.7 |
| B14 | 2.1 |
| B15 | 4.4 |
| B16 | 1.6 |
| B17 | 18.9 |
| B18 | 1.7 |
| B19 | 2.8 |
| B20 | 3 |
| B21 | 3 |
| B22 | 14.2 |
| B23 | 5.9 |
